From the supplement of paper PMC10065799, “High-throughput profiling of sequence recognition by tyrosine kinases and SH2 domains using bacterial peptide display” (eLife, 2023)

How the values were obtained:
[1] = biological target: SHP2-C SH2; experiment: SH2 binding enrichment of the phosphorylated peptide, bacterial display (enrichment ratio); higher = better substrate or ligand; peptides without Tyr show the background
[2] = biological target: c-Src SH2; experiment: as above
[3] = biological target: Grb2 SH2 (UniProt P62993); experiment: as above
Grb2 SH2, sequence (P62993 whole entry, looked up): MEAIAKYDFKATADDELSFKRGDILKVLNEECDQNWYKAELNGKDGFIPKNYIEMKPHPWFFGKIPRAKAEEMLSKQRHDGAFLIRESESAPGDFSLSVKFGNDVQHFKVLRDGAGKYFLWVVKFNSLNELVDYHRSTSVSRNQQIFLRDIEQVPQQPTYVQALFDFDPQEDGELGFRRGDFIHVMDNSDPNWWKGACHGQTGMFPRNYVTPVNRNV

[4] = biological target: MERTK (UniProt Q12866); experiment: phosphorylation enrichment, bacterial display (enrichment ratio); higher = better substrate or ligand; peptides without Tyr show the background
[5] = biological target: EPHB1 (UniProt P54762); experiment: as above
[6] = biological target: Jak2 (UniProt O60674); experiment: as above
[7] = system: c-Src; experiment: as above
[8] = biological target: FGFR1 (UniProt P11362); experiment: as above
FGFR1, sequence (P11362 whole entry, looked up): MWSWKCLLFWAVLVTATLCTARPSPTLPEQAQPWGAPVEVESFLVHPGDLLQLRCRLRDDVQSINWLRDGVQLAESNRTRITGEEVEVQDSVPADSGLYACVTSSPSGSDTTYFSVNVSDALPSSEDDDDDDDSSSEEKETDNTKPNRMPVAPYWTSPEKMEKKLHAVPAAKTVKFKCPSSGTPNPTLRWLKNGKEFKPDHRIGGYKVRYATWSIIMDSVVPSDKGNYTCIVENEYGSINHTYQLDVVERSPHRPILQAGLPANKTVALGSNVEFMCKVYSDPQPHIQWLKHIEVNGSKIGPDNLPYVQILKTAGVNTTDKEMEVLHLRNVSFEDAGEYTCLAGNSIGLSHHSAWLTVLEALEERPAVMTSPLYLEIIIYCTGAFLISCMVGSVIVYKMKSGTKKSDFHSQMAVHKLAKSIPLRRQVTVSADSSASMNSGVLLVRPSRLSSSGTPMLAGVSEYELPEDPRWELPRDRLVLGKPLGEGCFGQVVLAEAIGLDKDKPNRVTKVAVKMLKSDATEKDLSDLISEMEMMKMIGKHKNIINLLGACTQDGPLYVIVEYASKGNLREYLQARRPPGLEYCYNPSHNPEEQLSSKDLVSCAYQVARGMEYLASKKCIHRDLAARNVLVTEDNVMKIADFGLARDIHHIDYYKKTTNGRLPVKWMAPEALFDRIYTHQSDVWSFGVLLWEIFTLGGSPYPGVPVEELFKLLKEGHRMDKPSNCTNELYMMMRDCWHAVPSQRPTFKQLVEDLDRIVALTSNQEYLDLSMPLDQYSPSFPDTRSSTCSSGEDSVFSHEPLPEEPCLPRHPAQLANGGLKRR

[9] = system: c-Abl (mouse); experiment: as above
[10] = biological target: Hck (UniProt P08631); experiment: as above
Hck, sequence (P08631 whole entry, looked up): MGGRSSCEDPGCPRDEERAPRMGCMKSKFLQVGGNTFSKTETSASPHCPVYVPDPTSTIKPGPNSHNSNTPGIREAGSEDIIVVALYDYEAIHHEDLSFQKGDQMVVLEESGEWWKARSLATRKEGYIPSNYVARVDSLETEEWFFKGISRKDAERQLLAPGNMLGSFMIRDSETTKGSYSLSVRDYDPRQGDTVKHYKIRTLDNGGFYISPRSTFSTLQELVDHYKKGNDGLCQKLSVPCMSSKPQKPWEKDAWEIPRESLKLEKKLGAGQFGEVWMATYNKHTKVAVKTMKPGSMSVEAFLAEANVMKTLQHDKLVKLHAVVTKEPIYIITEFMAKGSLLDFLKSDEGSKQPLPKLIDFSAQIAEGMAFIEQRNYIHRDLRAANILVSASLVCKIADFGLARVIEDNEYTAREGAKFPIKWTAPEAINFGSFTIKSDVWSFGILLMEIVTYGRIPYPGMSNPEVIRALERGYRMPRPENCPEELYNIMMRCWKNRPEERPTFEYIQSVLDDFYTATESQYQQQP

[11] = system: AncSZ; experiment: as above
[12] = biological target: EPHB2 (UniProt P29323); experiment: as above
EPHB2, sequence (P29323 whole entry, looked up): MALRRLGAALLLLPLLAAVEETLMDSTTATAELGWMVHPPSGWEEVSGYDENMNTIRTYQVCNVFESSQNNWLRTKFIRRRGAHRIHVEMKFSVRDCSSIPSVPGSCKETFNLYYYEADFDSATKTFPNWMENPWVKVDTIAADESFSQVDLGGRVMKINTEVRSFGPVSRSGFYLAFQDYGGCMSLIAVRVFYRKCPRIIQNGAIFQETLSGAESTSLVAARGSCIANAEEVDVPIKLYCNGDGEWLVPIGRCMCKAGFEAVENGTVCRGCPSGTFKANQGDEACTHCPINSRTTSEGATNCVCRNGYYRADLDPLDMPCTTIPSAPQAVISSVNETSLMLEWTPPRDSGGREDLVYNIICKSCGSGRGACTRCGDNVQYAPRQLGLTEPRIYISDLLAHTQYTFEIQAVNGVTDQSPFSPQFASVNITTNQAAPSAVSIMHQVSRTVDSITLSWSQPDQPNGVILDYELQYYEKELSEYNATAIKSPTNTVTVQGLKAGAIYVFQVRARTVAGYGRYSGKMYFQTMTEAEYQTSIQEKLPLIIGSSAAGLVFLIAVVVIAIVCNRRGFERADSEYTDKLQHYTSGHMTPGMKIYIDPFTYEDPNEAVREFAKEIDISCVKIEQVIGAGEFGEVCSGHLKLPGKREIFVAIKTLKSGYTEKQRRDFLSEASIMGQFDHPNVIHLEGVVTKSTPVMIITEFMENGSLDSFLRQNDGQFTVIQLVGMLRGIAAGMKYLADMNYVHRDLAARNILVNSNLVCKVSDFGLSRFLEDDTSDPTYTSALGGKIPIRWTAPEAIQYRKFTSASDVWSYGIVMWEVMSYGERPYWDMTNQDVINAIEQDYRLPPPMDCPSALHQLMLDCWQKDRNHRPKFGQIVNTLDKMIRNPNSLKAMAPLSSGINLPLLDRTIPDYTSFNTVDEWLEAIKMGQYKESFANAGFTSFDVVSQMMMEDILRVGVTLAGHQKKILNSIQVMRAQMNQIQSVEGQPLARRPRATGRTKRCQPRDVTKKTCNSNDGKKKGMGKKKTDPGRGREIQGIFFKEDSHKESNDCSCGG

[13] = biological target: FGFR3 (UniProt P22607); experiment: as above
FGFR3, sequence (P22607 whole entry, looked up): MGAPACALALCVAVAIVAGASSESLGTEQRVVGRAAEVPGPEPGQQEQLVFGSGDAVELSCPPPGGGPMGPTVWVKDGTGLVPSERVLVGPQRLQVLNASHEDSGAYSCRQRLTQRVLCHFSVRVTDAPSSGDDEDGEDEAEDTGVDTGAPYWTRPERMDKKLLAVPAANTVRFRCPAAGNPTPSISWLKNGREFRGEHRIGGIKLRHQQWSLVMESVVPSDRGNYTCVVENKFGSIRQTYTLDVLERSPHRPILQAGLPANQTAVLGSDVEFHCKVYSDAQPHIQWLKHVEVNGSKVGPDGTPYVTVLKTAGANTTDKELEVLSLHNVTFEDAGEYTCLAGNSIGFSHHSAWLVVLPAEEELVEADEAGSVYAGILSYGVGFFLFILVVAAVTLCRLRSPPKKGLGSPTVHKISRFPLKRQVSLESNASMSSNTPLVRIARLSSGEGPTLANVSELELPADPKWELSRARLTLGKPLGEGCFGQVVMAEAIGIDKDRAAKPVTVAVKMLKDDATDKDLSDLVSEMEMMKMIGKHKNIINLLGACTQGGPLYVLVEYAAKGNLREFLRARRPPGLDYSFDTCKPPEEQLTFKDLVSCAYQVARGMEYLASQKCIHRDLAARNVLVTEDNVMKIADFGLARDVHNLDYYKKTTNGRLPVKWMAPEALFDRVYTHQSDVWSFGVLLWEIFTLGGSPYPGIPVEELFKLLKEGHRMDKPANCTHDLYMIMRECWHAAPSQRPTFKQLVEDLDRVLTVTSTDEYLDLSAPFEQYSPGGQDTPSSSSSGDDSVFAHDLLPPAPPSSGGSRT

[14] = system: Fer (mouse); experiment: as above
[15] = biological target: Fyn (UniProt P06241); experiment: as above
Fyn, sequence (P06241 whole entry, looked up): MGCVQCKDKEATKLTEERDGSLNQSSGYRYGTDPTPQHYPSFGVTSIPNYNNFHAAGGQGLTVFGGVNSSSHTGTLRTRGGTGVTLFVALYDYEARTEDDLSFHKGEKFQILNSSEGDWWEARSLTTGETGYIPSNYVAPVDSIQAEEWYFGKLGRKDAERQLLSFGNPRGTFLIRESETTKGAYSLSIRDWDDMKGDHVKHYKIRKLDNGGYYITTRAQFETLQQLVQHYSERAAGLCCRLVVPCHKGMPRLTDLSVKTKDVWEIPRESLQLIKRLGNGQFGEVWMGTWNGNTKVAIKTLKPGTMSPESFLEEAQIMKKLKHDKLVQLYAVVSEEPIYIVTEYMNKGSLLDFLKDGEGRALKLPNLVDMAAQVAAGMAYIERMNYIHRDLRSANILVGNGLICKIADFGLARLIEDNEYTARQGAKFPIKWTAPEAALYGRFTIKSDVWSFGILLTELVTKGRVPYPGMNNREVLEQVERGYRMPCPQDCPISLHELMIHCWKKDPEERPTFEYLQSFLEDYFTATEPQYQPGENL

[16] = biological target: Fes (UniProt P07332); experiment: as above
Fes, sequence (P07332 whole entry, looked up, the tested form may be a part): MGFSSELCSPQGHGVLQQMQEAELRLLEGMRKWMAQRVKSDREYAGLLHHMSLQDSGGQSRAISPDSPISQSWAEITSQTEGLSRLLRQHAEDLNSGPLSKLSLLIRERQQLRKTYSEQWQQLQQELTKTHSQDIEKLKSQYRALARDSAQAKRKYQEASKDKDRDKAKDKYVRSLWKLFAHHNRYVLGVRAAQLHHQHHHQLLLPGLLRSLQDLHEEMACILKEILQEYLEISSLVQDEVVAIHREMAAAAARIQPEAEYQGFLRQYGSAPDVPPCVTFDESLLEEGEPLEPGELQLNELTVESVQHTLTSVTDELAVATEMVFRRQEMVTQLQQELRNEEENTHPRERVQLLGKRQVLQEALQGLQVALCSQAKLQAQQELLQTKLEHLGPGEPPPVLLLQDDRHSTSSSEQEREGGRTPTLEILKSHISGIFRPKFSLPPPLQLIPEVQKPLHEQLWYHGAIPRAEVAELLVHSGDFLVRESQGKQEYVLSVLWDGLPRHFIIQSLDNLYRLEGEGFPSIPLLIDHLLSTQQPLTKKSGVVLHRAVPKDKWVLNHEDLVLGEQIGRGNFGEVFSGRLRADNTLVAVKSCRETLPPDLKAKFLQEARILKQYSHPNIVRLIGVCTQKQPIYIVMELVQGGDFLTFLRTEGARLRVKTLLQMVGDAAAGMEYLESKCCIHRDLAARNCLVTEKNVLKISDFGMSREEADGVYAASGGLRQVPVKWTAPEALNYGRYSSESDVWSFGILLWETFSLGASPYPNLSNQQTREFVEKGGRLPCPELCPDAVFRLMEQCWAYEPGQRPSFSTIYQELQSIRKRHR
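Throughout, for SH2 binding enrichment of the phosphorylated peptide, bacterial display: peptide library displayed on the E. coli surface as eCPX fusions, selected cells deep-sequenced, score is each peptide's frequency after selection divided by its frequency in the input.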
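Throughout, for phosphorylation enrichment, bacterial display: 11-residue human phosphosite peptides and single-mutation variants displayed on the E. coli surface, counted by deep sequencing, each peptide's frequency after selection divided by its frequency in the unselected input library; frequency after pTyr selection over input frequency; kinase dosed for 20-30% of maximal phosphorylation in three min.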

Sequence | SH2 binding enrichment [1] | SH2 binding enrichment [2] | SH2 binding enrichment [3] | phosphorylation enrichment [4] | phosphorylation enrichment [5] | phosphorylation enrichment [6] | phosphorylation enrichment [7] | phosphorylation enrichment [8] | phosphorylation enrichment [9] | phosphorylation enrichment [10] | phosphorylation enrichment [11] | phosphorylation enrichment [12] | phosphorylation enrichment [13] | phosphorylation enrichment [14] | phosphorylation enrichment [15] | phosphorylation enrichment [16]
EREYKYGAHKY [OAT_Y50_N54K] | 0.639 | 0.564 | 0.735 | 0.436 | 0.376 | 0.509 | 0.359 | 0.414 | 0.571 | 0.392 | 0.626 | 0.452 | 0.441 | 0.398 | 0.369 | 0.625
ANFTEYVATRW [CDKL5_Y171_YF] | 0.595 | 0.523 | 0.806 | 0.49 | 0.834 | 0.781 | 0.466 | 0.707 | 0.682 | 0.523 | 0.977 | 0.922 | 0.814 | 0.515 | 0.57 | 0.947
IENKLYGMSDS [RET_Y1062_P1067S] | 0.663 | 0.451 | 0.706 | 0.547 | 0.464 | 1.08 | 0.614 | 0.484 | 0.678 | 0.543 | 0.805 | 0.524 | 0.511 | 0.646 | 0.438 | 0.948
TFRPPYFHRDC [HGD_Y333_N337D_YF] | 0.741 | 0.93 | 1.18 | 0.424 | 0.432 | 0.685 | 0.558 | 0.496 | 0.587 | 0.454 | 0.617 | 0.431 | 2 | 0.422 | 0.427 | 0.847
SWDKRYCEAGF [ITGA2B_Y197] | 0.569 | 0.812 | 1.07 | 0.455 | 0.867 | 0.888 | 0.426 | 0.506 | 0.687 | 0.648 | 0.892 | 0.692 | 0.561 | 0.531 | 0.509 | 1.28
NLNGKYYKPRA [ANGPTL3_Y417_N418Y] | 0.974 | 0.861 | 1.3 | 0.304 | 0.404 | 0.617 | 0.406 | 0.408 | 0.61 | 0.312 | 0.474 | 0.324 | 0.445 | 0.354 | 0.241 | 0.57
DFDHSYFFIAT [ESD_Y262_G257D_YF] | 0.568 | 0.455 | 0.828 | 0.867 | 0.717 | 7.99 | 0.738 | 8.9 | 0.958 | 0.694 | 2.16 | 0.606 | 7.62 | 0.786 | 0.55 | 1.36
